Results reported in patent US20150307625A1 (Bayer, published 2015).

T1: dog activated Protein C (dog, UniProt Q28278 43-456)
T1 construct: mature; also called dog aPC; dAPC
T1 sequence (looked up): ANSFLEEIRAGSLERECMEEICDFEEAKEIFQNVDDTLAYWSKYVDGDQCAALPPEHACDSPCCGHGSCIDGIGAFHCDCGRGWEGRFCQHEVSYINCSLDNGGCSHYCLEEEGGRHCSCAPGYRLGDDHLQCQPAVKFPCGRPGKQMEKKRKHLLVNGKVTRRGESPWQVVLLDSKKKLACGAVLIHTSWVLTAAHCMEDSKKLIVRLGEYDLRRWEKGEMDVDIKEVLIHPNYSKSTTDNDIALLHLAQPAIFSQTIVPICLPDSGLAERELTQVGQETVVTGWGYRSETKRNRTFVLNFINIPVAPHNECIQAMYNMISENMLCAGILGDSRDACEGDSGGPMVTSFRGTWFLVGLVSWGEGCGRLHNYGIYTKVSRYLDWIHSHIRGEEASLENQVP

T2: dog Protein C (zymogen) (dog, UniProt Q28278 43-456)
T2 construct: mature; also called dog PC
T2 sequence (looked up): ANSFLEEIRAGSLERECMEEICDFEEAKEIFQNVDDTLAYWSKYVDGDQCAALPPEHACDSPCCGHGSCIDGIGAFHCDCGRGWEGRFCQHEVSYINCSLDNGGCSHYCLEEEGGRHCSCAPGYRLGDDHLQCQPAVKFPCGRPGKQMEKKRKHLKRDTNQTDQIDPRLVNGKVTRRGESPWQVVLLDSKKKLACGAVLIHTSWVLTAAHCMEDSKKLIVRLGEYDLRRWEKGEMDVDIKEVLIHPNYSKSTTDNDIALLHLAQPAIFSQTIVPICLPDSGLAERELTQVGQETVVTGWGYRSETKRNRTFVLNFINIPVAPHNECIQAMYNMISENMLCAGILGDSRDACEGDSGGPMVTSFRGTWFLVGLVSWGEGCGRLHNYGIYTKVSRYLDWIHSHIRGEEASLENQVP

T3: mouse Protein C (zymogen) (mouse, UniProt P33587 42-460)
T3 construct: mature; also called mouse PC
T3 sequence (looked up): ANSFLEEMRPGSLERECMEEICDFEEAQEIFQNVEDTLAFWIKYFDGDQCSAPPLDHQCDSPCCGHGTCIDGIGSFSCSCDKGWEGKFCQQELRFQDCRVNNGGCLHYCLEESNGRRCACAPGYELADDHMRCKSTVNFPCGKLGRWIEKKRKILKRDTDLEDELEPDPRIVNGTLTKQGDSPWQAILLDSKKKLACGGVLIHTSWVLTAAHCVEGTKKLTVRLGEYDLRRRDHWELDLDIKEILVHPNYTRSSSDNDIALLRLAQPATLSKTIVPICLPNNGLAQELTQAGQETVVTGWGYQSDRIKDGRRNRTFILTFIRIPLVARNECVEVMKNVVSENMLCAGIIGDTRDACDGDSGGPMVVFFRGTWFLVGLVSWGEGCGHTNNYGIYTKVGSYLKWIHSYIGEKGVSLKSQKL

B1: C7A23 Fab (Fab, V domains shown)
VH: EVQLLESGGGLVQPGGSLRLSCAASGFTFGNHWMTWVRQAPGKGLEWVSGVSWNGSRTHYADSVKGRFTISRDNSKNTLYLQMNSLRAEDTAVYYCALTGRSGWMRFPNWFDPWGQGTLVTVTS
VL: QSVLTQPPSASGTPGQRVTISCSGSSSNIGNNYVSWYQQLPGTAPKLLIYRNNQRPSGVPDRFSGSKSGTSASLAISGLRSEDEADYYCQSYDSDLSGPYVLFGGGTKLTVLG
notes: Human Fab (lambda) from a phage library, expressed in E. coli
B2: C26B9 Fab (Fab, V domains shown)
VH: EVQLLESGGGLVQPGGSLRLSCAASGFTFSSYGMHWVRQAPGKGLEWVSVIYSGGSTYYADSVKGRFTISRDNSKNTLYLQMNSLRAEDTAVYYCARMGRAFDIWGQGTLVTVTS
VL: QSVLTQPPSASGTPGQRVTISCSGSSSNIRSNTVNWYQQLPGTAPKLLIYGNSNRPSGVPDRFSGSKSGTSASLAISGLRSEDEADYYCQSYDSSLSGDVVFGGGTKLTVLG
notes: as for B1
B3: C26B9 hIgG1 (antibody, V domains shown)
VH: B2 VH
VL: B2 VL
B4: R41C17 Fab (Fab, V domains shown)
VH: EVQLLESGGGLVQPGGSLRLSCAASGFTFSNYAMSWVRQSPGKGLEWVAVISYDGREKYYSDSVKGRFTISRDNSKNTLYLQMNSLRAEDTAVYYCARDRGRTFDYWGQGTLVTVTS
VL: LTQPPSASGTPGQRVTISCTGSSSNIGAGYVVHWYQQLPGTAPKLLIYRNNHRPSGVPDRFSGSKSGTSASLAISGLRSEDEADYYCAAWDDSLNGRVFGGGTKLTVLG
notes: Human Fab (lambda), expressed in E. coli; also called R4117
B5: R41C17 hIgG1 (antibody, V domains shown)
VH: B4 VH
VL: B4 VL
B6: C22J13 Fab (Fab, V domains shown)
VH: EVQLLESGGGLVQPGGSLRLSCAASGFTFSSNYMSWVRQAPGKGLEWVAVISYDGSNKYYADSVKGRFTISRDNSKNTLYLQMNSLRAEDTAMYYCALTGRSGWMRFPNWFDPWGQGTLVTVTS
VL: QSVLTQPPSASGTPGQRVTISCSGSDSNIGSNAVNWYQQLPGTAPKLLIYDNNKRPSGVPDRFSGSKSGTSASLAISGLRSEDEADYYCSSYTSSNTVVFGGGTKLTVLG
notes: as for B1
B7: O3E7 hIgG1 (antibody, V domains shown)
VH: EVQLLESGGGLVQPGGSLRLSCAASGFTFSSYSMNWVRQAPGKGLEWVSAISGSGGSTYYADSVKGRFTISRDNSKNTLYLQMNSLRAEDTAVYYCARDRRVRGIYDAFDMWGQGTLVTVTS
VL: QSVLTQPPSTSGTPGQRVTISCTGSSSNIGAGFDVHWYQQLPGTAPKLLIYGNSNRPSGVPDRFSGSKSGTSASLAISGLRSEDEADYYCATWQDTLTGWMFGGGTKLTVLG
notes: also called O3E7-IgG; 03E7
B8: T46P19 Fab (Fab, V domains shown)
VH: EVQLLESGGGLVQPGGSLRLSCAASGFTFSGYGMHWVRQAPGKGLEWVSGINWNGGSTGYADSVKGRFTISRDNSKNTLYLQMNSLRAEDTAVYYCARNRATRSGYYYFDSWGQGTLVTVTS
VL: LTQPPSASGTPGQRVTISCTGSSSNIGAGYDVHWYQQLPGTAPKLLIYGNINRPSGVPDRFSGSKSGTSASLAISGLRSEDEADYYCSSYTRSATLVFGGGTKLTVLG
notes: Human Fab (lambda), expressed in E. coli
B9: T46P19 hIgG1 (antibody, V domains shown)
VH: B8 VH
VL: B8 VL

Tests used:
[1] = target: T1, dog activated Protein C; test: direct ELISA, antigen coated, Fab
[2] = target: T2, dog Protein C (zymogen); test: direct ELISA, dPC coated at 10 ug/ml, Fab at 20 nM, anti-human Fab-HRP, AmplexRed (RFU)
Protocol: (§1) To determine the binding selectivity of these fabs, their binding activities to the proenzyme human PC, to thrombin (FIIa), and to the activated Factor II (FIIa, thrombin), Factor VII (FVIIa), Factor IX (FIXa), and Factor X (FXa) were also assessed by ELISA. Briefly, an ELISA plate was coated with human aPC at 1 ug/ml, mouse PC at 10 ug/ml, dog PC at 10 ug/ml, other coagulation factors (FIIa, FVIIa, FIXa, FXa) at 5-10 ug/ml. Anti-aPC Fabs were added to the wells at 20 nM (1 ug/ml). Bound Fabs were detected by the secondary antibody (anti-human Fab-HRP) followed by HRP substrate AmplexRed.

[3] = target: T3, mouse Protein C (zymogen); test: direct ELISA, mPC coated at 10 ug/ml, Fab at 20 nM, anti-human Fab-HRP, AmplexRed (RFU)
Protocol: as §1

[4] = target: T1, dog activated Protein C; test: Biacore, Fab
[5] = target: T1, dog activated Protein C; test: direct ELISA, antigen coated at 100 ng/well, Fab at 20 nM (1 ug/ml), anti-human Fab-HRP, AmplexRed (RFU)
Protocol: (§2) FIG. 3 depicts a graph characterizing anti-APC Fabs by direct ELISA. An ELISA plate was coated with human PC (hPC), human aPC (hAPC), dog aPC (dAPC), mouse aPC (mAPC) at 100 ng per well. Purified Fabs designate on the X-axis were added to the plate at 20 nM (1 ug/ml). Bound Fab was detected by the secondary antibody (anti-human Fab-HRP) followed by HRP substrate AmplexRed. The purified Fabs preferentially bind to human aPC and, with the exception of Fab R41C17, show little to no binding to human PC.
(§3) Antigens were coated directly on ELISA plates. Coating antigens included human PC (plasma-derived), human aPC (recombinant), dog aPC (plasma-derived), and mouse aPC (recombinant) at 100 ng/well in PBS/Ca buffer. After blocking the plate with 5% milk/PBS and washing the plate with PBS-Tween20, soluble Fabs (1 ug/ml, 20 nM) were added to the plate and incubated for 1 h at RT with shaking. Fab binding was detected with anti-human Fab (lambda) antibody-HRP and Amplex red as substrate. […] In contrast, R41C17 binds to both human APC and human PC. Also shown in FIG. 3 is cross-species reactivity of Fabs by ELISA.

[6] = target: T4, human Protein C (zymogen) (human, UniProt P04070 43-461); test: as above
T4 construct: also called human PC; hPC
Protocol: as §2, §3

[7] = target: T5, human activated Protein C (human, UniProt P04070 43-461); test: direct ELISA, antigen coated, Fab
T5 construct: also called human aPC; hAPC

[8] = target: T5, human activated Protein C; test: Biacore, Fab
[9] = target: T1, dog activated Protein C; test: direct ELISA, antigen coated at 1 ug/ml, IgG at 20 nM, anti-human IgG-HRP, AmplexRed (RFU)
[10] = target: T4, human Protein C (zymogen); test: as above
[11] = target: T5, human activated Protein C; test: direct ELISA, aPC coated, hIgG1

| Binder | binding result [2] | binding result [3] | binding result [5] | binding result [6] | EC50 [7] [nM] | Kd [8] [nM] | binding result [9] | EC50 [11] [nM] | also measured |
| --- | --- | --- | --- | --- | --- | --- | --- | --- | --- |
| B1 | no binding (tested: 20 nM) | no binding (tested: 20 nM) |  |  |  |  |  |  | EC50 [1]: 6 nM; Kd [4]: 1.3 nM |
| B2 | no binding (tested: 20 nM) | no binding (tested: 20 nM) | no binding (tested: 20 nM) | no binding (tested: 20 nM) | 10.3 | 7.9 |  |  |  |
| B3 |  |  |  |  |  |  | no binding (tested: 20 nM) | 0.65 | binding result [10]: no binding (tested: 20 nM) |
| B4 | no binding (tested: 20 nM) | no binding (tested: 20 nM) | no binding (tested: 20 nM) |  | 8.6 | 4.8 |  |  |  |
| B5 |  |  |  |  |  |  | no binding (tested: 20 nM) | 0.55 |  |
| B6 |  | no binding (tested: 20 nM) |  | no binding (tested: 20 nM) | 10.6 | 16 |  |  |  |
| B7 |  |  |  |  |  |  |  | 16.9 |  |
| B8 | no binding (tested: 20 nM) | no binding (tested: 20 nM) | no binding (tested: 20 nM) | no binding (tested: 20 nM) | 10.3 | 7.2 |  |  |  |
| B9 |  |  |  |  |  |  | no binding (tested: 20 nM) | 0.37 | binding result [10]: no binding (tested: 20 nM) |
